The results in this text go back to US20230212319A1, “NOVEL ANTIGEN BINDING DOMAINS AND SYNTHETIC ANTIGEN RECEPTORS INCORPORATING THE SAME” (University of Southern California, priority 2020, published 2023).

First the molecules themselves.
B1: 22056 (protein)
chain: MALPVTALLLPLALLLHAARPQLQLQESGPGLVKPSETLSLTCTVSGDSISSGDYYWGWIRQPPGKGLEWIGHIYYSGVTYYNPSLKSRVTISVDTSRNQFSLKLSSVTAADTAVYYCTREDSSNWRSRGQGTLVTVSSLEGSPIKTDVITMDPKDNCSKDANDTLLLQLTNTSAYYMYLLLLLKSVVYFAIITCCLLRRTAFCCNGEKSRAKRSGSGATNFSLLKQAGDVEENPGPTSMDWIWRILFLVGAATGAHSFEVQLVESGGGVVQPGRSLRLSCAASGFSFSGYGMHWVRQAPGKGLEWVAYISYDGSNKYYADSVKGRFTISRDNSKNTLYLQMNSLRAEDTAVYYCAKDPAWGLRLGESSSYDFDIWGQGTMVTVSSTRDKTHTCPPCPAGRADCGFTSESYQQGVLSATILYEILLGKATLYAVLVSALVLMAMVKRKDFRAKRSGSGATNFSLLKQAGDVEENPGPSRGHMTEYKPTVRLATRDDVPRAVRTLAAAFADYPATRHTVDPDRHIERVTELQELFLTRVGLDIGKVWVADDGAAVAVWTTPESVEAGAVFAEIGPRMAELSGSRLAAQQQMEGLLAPHRPKEPAWFLATVGVSPDHQGKGLGSAVVLPGVEAAERAGVPAFLETSAPRNLPFYERLGFTVTADVEVPEGPRTWCMTRKPGA
B2: 22080 (protein)
chain: MALPVTALLLPLALLLHAARPQLQLQESGPGLVKPSETLSLTCTVSGDSISSGDYYWGWIRQPPGKGLEWIGHIYYSGVTYYNPSLKSRVTISVDTSRNQFSLKLSSVTAADTAVYYCTREDSSNWRSRGQGTLVTVSSLESGGGGSFEEVQLLESGGGLVQPGGSLRLSCAASGFTFSSYAMSWVRQAPGKGLEWVSSISGSGDYIYYADSVKGRFTISRDISKNTLYLQMNSLRAEDTAVYYCAKEGTGANSSLADYRGQGTLVTVSSTRASTKGPSVFPLAPSSKSTSGGTAALGCLVKDYFPEPVTVSWNSGALTSGVHTFPAVLQSSGLYSLSSVVTVPSSSLGTQTYICNVNHKPSNTKVDKRVEPKSCIPEDTFFPSPESSCDVKLVEKSFETDTNLNFQNLSVIGFRILLLKVAGFNLLMTLRLWSSRAKRSGSGVKQTLNFDLLKLAGDVESNPGPSRGHMTEYKPTVRLATRDDVPRAVRTLAAAFADYPATRHTVDPDRHIERVTELQELFLTRVGLDIGKVWVADDGAAVAVWTTPESVEAGAVFAEIGPRMAELSGSRLAAQQQMEGLLAPHRPKEPAWFLATVGVSPDHQGKGLGSAVVLPGVEAAERAGVPAFLETSAPRNLPFYERLGFTVTADVEVPEGPRTWCMTRKPGA
B3: 22069 (protein)
chain: MALPVTALLLPLALLLHAARPQLQLQESGPGLVKPSETLSLTCTVSGDSISSGDYYWGWIRQPPGKGLEWIGHIYYSGVTYYNPSLKSRVTISVDTSRNQFSLKLSSVTAADTAVYYCTREDSSNWRSRGQGTLVTVSSLEGGGGSGGGGSGGGGSVEIQNPDPAVYQLRDSKSSDKSVCLFTDFDSQTNVSQSKDSDVYITDKCVLDMRSMDFKSNSAVAWSNKSDFACANAFNNSIIPEDTFFPSPESSCDVKLVEKSFETDTNLNFQNLSVIGFRILLLKVAGFNLLMTLRLWSSSSRAKRSGSGVKQTLNFDLLKLAGDVESNPGPTSMDWIWRILFLVGAATGAHSFEVQLLESGGGLIQPGGSLRLSCAASGFTFSSHAMTWVRQAPGKGLEWVSAISGSGDYTHYADSVKGRFTISRDNSKNTVYLQMNSLRAEDSAVYYCAKDEDGGSLLGHRGQGTLVTVSSTRIQNPDPAVYQLRDSKSSDKSVCLFTDFDSQTNVSQSKDSDVYITDKCVLDMRSMDFKSNSAVAWSNKSDFACANAFNNSIIPEDTFFPSPESSCDVKLVEKSFETDTNLNFQNLSVIGFRILLLKVAGFNLLMTLRLWSSRAKRSGSGVKQTLNFDLLKLAGDVESNPGPSRGHMTEYKPTVRLATRDDVPRAVRTLAAAFADYPATRHTVDPDRHIERVTELQELFLTRVGLDIGKVWVADDGAAVAVWTTPESVEAGAVFAEIGPRMAELSGSRLAAQQQMEGLLAPHRPKEPAWFLATVGVSPDHQGKGLGSAVVLPGVEAAERAGVPAFLETSAPRNLPFYERLGFTVTADVEVPEGPRTWCMTRKPGA
B4: 22082 (protein)
chain: MALPVTALLLPLALLLHAARPQLQLQESGPGLVKPSETLSLTCTVSGDSISSGDYYWGWIRQPPGKGLEWIGHIYYSGVTYYNPSLKSRVTISVDTSRNQFSLKLSSVTAADTAVYYCTREDSSNWRSRGQGTLVTVSSLESGGGGSFEQLQLQESGPGLVKPSETLSLTCTVSGGSISSGDYYWGWIRQPPGKGLEWIGHIYYSGATYYNPSLKSRVTISVDTSRNQFSLKLSSVTAADTAVYYCTRDDSSNWRSRGQGTLVTVSSTRASTKGPSVFPLAPSSKSTSGGTAALGCLVKDYFPEPVTVSWNSGALTSGVHTFPAVLQSSGLYSLSSVVTVPSSSLGTQTYICNVNHKPSNTKVDKRVEPKSCIPEDTFFPSPESSCDVKLVEKSFETDTNLNFQNLSVIGFRILLLKVAGFNLLMTLRLWSSRAKRSGSGVKQTLNFDLLKLAGDVESNPGPSRGHMTEYKPTVRLATRDDVPRAVRTLAAAFADYPATRHTVDPDRHIERVTELQELFLTRVGLDIGKVWVADDGAAVAVWTTPESVEAGAVFAEIGPRMAELSGSRLAAQQQMEGLLAPHRPKEPAWFLATVGVSPDHQGKGLGSAVVLPGVEAAERAGVPAFLETSAPRNLPFYERLGFTVTADVEVPEGPRTWCMTRKPGA
B5: 22097 (protein)
chain: MALPVTALLLPLALLLHAARPQLQLQESGPGLVKPSETLSLTCTVSGDSISSGDYYWGWIRQPPGKGLEWIGHIYYSGVTYYNPSLKSRVTISVDTSRNQFSLKLSSVTAADTAVYYCTREDSSNWRSRGQGTLVTVSSLEGQPKANPTVTLFPPSSEELQANKATLVCLISDFYPGAVTVAWKADGSPVKAGVETTKPSKQSNNKYAASSYLSLTPEQWKSHRSYSCQVTHEGSTVEKTVAPTECSGRADCGFTSESYQQGVLSATILYEILLGKATLYAVLVSALVLMAMVKRKDSRGRAKRSGSGATNFSLLKQAGDVEENPGPTSMDWIWRILFLVGAATGAHSFEVQLLESGGGLIQPGGSLRLSCAASGFTFSSHAMTWVRQAPGKGLEWVSAISGSGDYTHYADSVKGRFTISRDNSKNTVYLQMNSLRAEDSAVYYCAKDEDGGSLLGHRGQGTLVTVSSTRASTKGPSVFPLAPSSKSTSGGTAALGCLVKDYFPEPVTVSWNSGALTSGVHTFPAVLQSSGLYSLSSVVTVPSSSLGTQTYICNVNHKPSNTKVDKRVEPKSCIPEDTFFPSPESSCDVKLVEKSFETDTNLNFQNLSVIGFRILLLKVAGFNLLMTLRLWSSRAKRSGSGVKQTLNFDLLKLAGDVESNPGPSRGHMTEYKPTVRLATRDDVPRAVRTLAAAFADYPATRHTVDPDRHIERVTELQELFLTRVGLDIGKVWVADDGAAVAVWTTPESVEAGAVFAEIGPRMAELSGSRLAAQQQMEGLLAPHRPKEPAWFLATVGVSPDHQGKGLGSAVVLPGVEAAERAGVPAFLETSAPRNLPFYERLGFTVTADVEVPEGPRTWCMTRKPGA

The test system of this assay is RAJI cells. As to the kind of experiment: JNG assay, co-culture with RAJI cells. Type of assay: cell-based. The settings on record: JNG cells expressing construct, co-culture with Raji. In short, it runs like this:
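Read-out is NFAT-driven GFP measured by flow cytometry after ~4–18 h co-culture of SAR-expressing JNG cells with target cells (E:T about 1:2). SARs were introduced by lentiviral spinfection and selected with puromycin or blasticidin when possible; scores (+/- to 5+ ≈ 5–50% GFP+) are relative to parental JNG cells.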
For B1, the “NFAT-GFP ASSAY: Raji” value is “+/- (refer to approximately 5%, 10%, 20%, 30%, 40% and 50% GFP positive cells)”.

As to B2, the “NFAT-GFP ASSAY: Raji” value was “+ (refer to approximately 5%, 10%, 20%, 30%, 40% and 50% GFP positive cells)”.

Consider B3, for which the “NFAT-GFP ASSAY: Raji” value was “+ (refer to approximately 5%, 10%, 20%, 30%, 40% and 50% GFP positive cells)”.

B4: the “NFAT-GFP ASSAY: Raji” value is “+/- (refer to approximately 5%, 10%, 20%, 30%, 40% and 50% GFP positive cells)”.

Take B5: the “NFAT-GFP ASSAY: Raji” value is “+ (refer to approximately 5%, 10%, 20%, 30%, 40% and 50% GFP positive cells)”.
